Experimental data taken from patent US20140322218A1 (Amgen, published 2014).

T1: muCDH19(44-770), Flag-tagged, on 293T cells (mouse)
T1 construct: also called Mu EC1-5
T1 chain: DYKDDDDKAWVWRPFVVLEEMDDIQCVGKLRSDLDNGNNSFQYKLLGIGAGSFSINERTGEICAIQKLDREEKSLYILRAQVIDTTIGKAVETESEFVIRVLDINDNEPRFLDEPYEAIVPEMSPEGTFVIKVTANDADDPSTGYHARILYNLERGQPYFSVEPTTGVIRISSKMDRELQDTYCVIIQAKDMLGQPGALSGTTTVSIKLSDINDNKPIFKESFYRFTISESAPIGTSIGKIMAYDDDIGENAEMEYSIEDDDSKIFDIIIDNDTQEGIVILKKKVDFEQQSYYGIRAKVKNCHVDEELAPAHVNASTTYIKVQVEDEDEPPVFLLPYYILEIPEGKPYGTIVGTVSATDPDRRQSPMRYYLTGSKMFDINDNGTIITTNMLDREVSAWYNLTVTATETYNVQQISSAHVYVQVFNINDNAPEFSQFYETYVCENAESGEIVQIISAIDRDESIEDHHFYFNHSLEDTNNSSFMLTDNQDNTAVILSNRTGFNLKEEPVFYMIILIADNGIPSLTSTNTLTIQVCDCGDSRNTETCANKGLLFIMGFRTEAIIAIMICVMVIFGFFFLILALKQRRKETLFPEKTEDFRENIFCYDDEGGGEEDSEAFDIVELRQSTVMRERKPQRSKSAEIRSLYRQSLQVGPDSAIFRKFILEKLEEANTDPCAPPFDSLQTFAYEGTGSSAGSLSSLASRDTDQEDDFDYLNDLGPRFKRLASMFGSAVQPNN

T2: caCDH19(1-42)::FLAG::caCDH19(43-770), on 293T cells (dog)
T2 construct: also called Ca EC1-5
T2 chain: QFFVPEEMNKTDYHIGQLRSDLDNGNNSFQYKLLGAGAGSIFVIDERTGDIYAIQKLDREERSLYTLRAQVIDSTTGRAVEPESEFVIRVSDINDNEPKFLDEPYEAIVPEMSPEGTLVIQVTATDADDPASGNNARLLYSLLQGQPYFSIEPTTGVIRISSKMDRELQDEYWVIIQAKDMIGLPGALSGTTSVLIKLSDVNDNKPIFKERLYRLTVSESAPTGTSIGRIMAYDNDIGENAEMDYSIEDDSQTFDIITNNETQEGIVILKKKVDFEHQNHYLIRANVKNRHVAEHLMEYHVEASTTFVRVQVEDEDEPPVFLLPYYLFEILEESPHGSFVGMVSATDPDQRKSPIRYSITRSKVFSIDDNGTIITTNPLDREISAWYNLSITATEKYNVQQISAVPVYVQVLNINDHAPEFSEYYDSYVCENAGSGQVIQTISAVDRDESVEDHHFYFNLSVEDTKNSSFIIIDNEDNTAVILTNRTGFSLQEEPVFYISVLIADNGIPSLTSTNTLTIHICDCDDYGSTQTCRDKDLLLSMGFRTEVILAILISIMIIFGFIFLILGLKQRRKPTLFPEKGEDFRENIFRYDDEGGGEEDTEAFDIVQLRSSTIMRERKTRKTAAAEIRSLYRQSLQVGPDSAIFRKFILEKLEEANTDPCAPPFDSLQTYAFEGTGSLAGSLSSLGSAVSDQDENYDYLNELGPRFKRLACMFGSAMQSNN

T3: rhCDH19(1-43)::FLAG::rhCDH19(44-141)::raCDH19(140-247)::rhCDH19(250-772), on 293T cells (rhesus macaque/rat chimera, UniProt Q9H159 44-772 (human entry))
T3 construct: Entry holds leader (1-43), Flag tag and CDH19 part; leader left out; also called ra EC2 (rhesus backbone)
T3 chain: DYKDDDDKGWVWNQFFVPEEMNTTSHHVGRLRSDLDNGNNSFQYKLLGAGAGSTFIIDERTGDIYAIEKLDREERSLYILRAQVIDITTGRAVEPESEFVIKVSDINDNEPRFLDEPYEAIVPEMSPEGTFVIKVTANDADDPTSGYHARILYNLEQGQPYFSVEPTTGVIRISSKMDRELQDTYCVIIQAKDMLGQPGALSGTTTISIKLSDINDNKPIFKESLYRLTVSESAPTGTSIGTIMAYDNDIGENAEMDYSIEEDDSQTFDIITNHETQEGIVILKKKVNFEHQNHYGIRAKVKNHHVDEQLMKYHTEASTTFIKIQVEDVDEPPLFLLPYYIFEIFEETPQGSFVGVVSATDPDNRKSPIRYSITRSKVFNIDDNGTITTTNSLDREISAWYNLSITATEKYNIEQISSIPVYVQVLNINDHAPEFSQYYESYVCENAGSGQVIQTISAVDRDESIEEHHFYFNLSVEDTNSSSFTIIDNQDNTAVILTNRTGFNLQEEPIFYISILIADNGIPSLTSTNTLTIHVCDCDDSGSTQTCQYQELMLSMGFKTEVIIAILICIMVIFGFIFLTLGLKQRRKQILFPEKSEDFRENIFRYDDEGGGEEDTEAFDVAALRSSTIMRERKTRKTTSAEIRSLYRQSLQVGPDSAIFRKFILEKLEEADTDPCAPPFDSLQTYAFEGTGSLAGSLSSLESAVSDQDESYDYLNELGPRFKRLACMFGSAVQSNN


Experiments:
Test in all cases: FACS, transfected 293T
[1] = biological target: T4, muCDH19(44-247)::huCDH19(250-364)::muCDH19(363-770), Flag-tagged, on 293T cells (human/mouse chimera)
T4 construct: also called Hu EC3; C137911
Text: (§1) The experiment included assaying the anti-CDH19 antibodies against mouse Cadherin19 to determine suitability for binning on these human/mouse chimeras.

[2] = biological target: T5, muCDH19(44-139)::huCDH19(142-364)::muCDH19(363-770), Flag-tagged, on 293T cells (human/mouse chimera)
T5 construct: also called Hu EC2-3; C137847
Text: as §1

[3] = biological target: T1, muCDH19(44-770), Flag-tagged, on 293T …
[4] = biological target: T2, caCDH19(1-42)::FLAG::caCDH19(43-770), …
Experimental: (§2) The following binding assay was completed in presence of 2 mM CaCl2. […] Cells were then washed one time and the amount of cell associated Alexa647-labelled Ab was quantitated by flow cytometry. The experiments included mock transfected controls.

[5] = biological target: T6, rhCDH19(1-43)::FLAG::rhCDH19(44-65)::caCDH19(65-770), on 293T cells (rhesus macaque/dog chimera)
T6 construct: Entry holds leader (1-43), Flag tag and CDH19 part; leader left out; also called rh EC1a (dog backbone)
Experimental: as §2

[6] = biological target: T3, rhCDH19(1-43)::FLAG::rhCDH19(44-141)::ra …
Experimental: as §2

Binder | binding result [1] | binding result [2] | binding result [3] | binding result [4] | binding result [5] | binding result [6]
hu anti-<huCDH19> 4B10 VH::huIgG1z / 4B10 VL::huKLC (Ab ID 13590) (antibody, V domains shown) VH: QVQLVESGGGVVQPGRSLRLSCAASGFTFSSYDMHWVRQAPGKGLEWVAVISYDGTNEYYADSVKGRFTISRDTSKNTLYLQMNSLRAEDTAVYYCARERYFDWSFDYWGQGTLVSVSS VL: EIVLTQSPGTLSLSPGERATLSCRASQSVSNTYLAWYHQRPGQAPRLLIYGASSRATGIPDRFSGSGSGTDFALTISSLEPEDFAVYYCQQYSNSWTFGQGTKVEIKR | binds | binds | no binding (tested: 5 ug/ml) |  |  | 
hu anti-<huCDH19> 4A9 VH::huIgG1z / 4A9 VL::huLLC-C1 (Ab ID 13589) (antibody, V domains shown, Recombinant fully human IgG1) VH: QVQLQESGPGLVKPSETLSLTCTVSGGSISGYYWSWIRQPPGKGLEWFAYFSYSGSTNYNPSLKSRVTLSVDTSKNQFSLKLSSVTAADTAVYYCARNWAFHFDFWGQGTLVTVSS VL: QSVLTQPPSVSGAPGQRVTISCTGSSSNIGTGYAVHWYQQFPGTAPKLLIYGNNNRPSGVPDRFSGSKSGTSASLAITGLQAEDEADYYCQSYDSRLSGWVFGGGTKLTVLG |  |  | no binding (tested: 5 ug/ml) | no binding (tested: 5 ug/ml) | no binding (tested: 5 ug/ml) | no binding (tested: 5 ug/ml)
hu anti-<huCDH19> 25F8.1 (1-469)(F90Y) VH::huIgG1z / 25F8.1 (1-235)(K45Q,S102A,D111E) VL::huLLC-C2 (Ab ID 14096) (antibody, V domains shown, Engineered variant of 25F8) VH: QVQLVQSGAEVKKPGASVKVSCKASGYTFTSYYIHWVRQAPGQGLEWMGIINPSGGSTRYAQKFQGRVTMTRDTSTSTVYMELSSLRSEDTAVYYCARGGIQLWLHFDYWGQGTLVTVSS VL: not shown |  |  |  |  |  | no binding (tested: 5 ug/ml)
hu anti-<huCDH19> 26D1.1 VH::huIgG1z / 26D1.1 VL::huLLC-C2 (Ab ID 13882) (antibody, V domains shown) VH: QVQLVQSGAEVKKPGASVKVSCKASRYTFTSYYMSWVRQAPGQGLEWMGIIHPSGGDTTYAQKFQGRVTMTGDTSTSTVYMELSSLRSEDTAVYYCARGGIKLWLHFDYWGQGTLVTVSS VL: not shown |  |  | no binding (tested: 5 ug/ml) | no binding (tested: 5 ug/ml) | binds | no binding (tested: 5 ug/ml)
anti-CDH19 antibody 2G6 (Ab ID 13588) (antibody, human IgG1, lambda, V domains shown) VH: QVQLVESGGGVVQPGRSLRLSCAASGFTFSSYGMHWVRQAPGKGLEWVAFIWYDGSNKYYADSVKDRFTISRDNSKNTLYLQMKSLRAEDTAVYYCARRAGIIGTIGYYYGMDVWGQGTTVTVSS VL: SYELTQPPSVSVSPGQTASITCSGDRLGEKYTCWYQQRPGQSPLLVIYQDTKRPSGIPERFSGSNSGNTATLTISGTQAMDEADYYCQAWDSSTVVFGGGTKLTVLG | binds | binds | binds |  |  | 
hu anti-<huCDH19> 23A10.3 (1-474)(L92Q) VH::huIgG1z / 23A10.3 (1-231)(C42S) VL::huLLC-C2 (Ab ID 14077) (antibody, V domains shown, Engineered variant of 23A10) VH: QVQLVESGGGVVQPGRSLRLSCAASGFTFSRYGIHWVRQAPGKGLEWVAVIWYDGSNKYYADSVKGRFTISRDNSKNTLYLQMNSLRAEDSAVYYCARRAGIPGTTGYYYGMDVWGQGTTVTVSS VL: SYELTQPPSVSVSPGQTASITCSGDRLGEKYVSWYQQKPGQSPILVIYQDNKWPSGIPERFSGSNSGNTATLTISGTQAMDEADYYCQAWDSSTVVFGGGTKLTVLG |  |  | binds |  |  | 
